Data as given in patent publication US11623951B2, “Antibodies to R-spondin 3” (National Health Research Institutes, priority 2017, dated 2023).
Entries after “also recorded” stand apart in the source; their conditions may differ.

B1: hB1: humanized α-RSPO3 antibody derived from murine clone B1; VH SEQ ID NO: 14, VL SEQ ID NO: 16 (antibody, V domains shown)
VH: QIQLQESGPGLVKPSESLSLTCSVTGYSITSGYYWNWIRQFPGNGLEWMGYISYDGTNNYNPSLKDRISITRDTSKNQFFLKLNSVTAADTATYYCSVLLIQYFNIWGKGTTVTVSS
VL: DIQMTQSPSSLSASVGERVTITCRTSESVNNFLAWFHQKPGKSPKLLVYHAKTLADGVSSRFSGSGSGTQYSLKINSLQPEDFGNYYCQHFWSIPWTFGGGTKLEIKR
modifications: Heavy chain variable region; Light chain variable region
B2: rosmantuzumab (antibody, chains of the INN, looked up, V domains shown)
VH: QVQLVQSGAEVKKPGASVKVSCKASGYTFTDYSIHWVRQAPGQGLEWIGYIYPSNGDSGYNQKFKNRVTMTRDTSTSTAYMELSRLRSEDTAVYYCATYFANNFDYWGQGTTLTVSS
VL: DIQMTQSPSSLSASVGDRVTITCKASQSVDYDGDSYMNWYQQKPGKAPKLLIYAASNLESGVPSRFSGSGSGTDFTLTISPVQAEDFATYYCQQSNEDPLTFGAGTKLELK

Legend:
RSPO3 / RNF43 binding = biological target: T1, RSPO3 / RNF43 binding (Homo sapiens, UniProt Q9BXY4); experiment: Competitive ELISA of RSPO3 binding to RNF43; details: RNF43-His 200 ng/ml, antibody 20 μg/ml
T1 construct: purchased Peprotech (RSPO3); Sino Biological (RNF43-His) 16108-H08H (RNF43)
T1 sequence (Q9BXY4 22-272): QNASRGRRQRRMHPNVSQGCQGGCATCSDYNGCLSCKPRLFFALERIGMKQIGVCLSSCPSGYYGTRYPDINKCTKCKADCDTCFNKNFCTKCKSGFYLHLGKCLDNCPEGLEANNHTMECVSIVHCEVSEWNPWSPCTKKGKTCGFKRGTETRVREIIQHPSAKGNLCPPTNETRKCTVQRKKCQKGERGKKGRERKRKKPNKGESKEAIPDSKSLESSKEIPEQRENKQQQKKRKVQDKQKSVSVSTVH
Description: FIG. 10 is a set of graphs showing competitive binding of RSPO3 to LGR5 or RNF43 by different α-RSPO3 antibodies. To exam whether different α-RSPO3 antibodies might compete with the binding of RSPO3 to LGR5 or RNF43, recombinant hRSPO3 was coated on a plate. (A) Recombinant LGR5 (22-560)-Fc was conjugated with biotin to facilitate detection. Biotinylated LGR5 was then respectively mixed with various concentrations of either α-RSPO3 antibodies or isotype control Ab and applied to RSPO3-coated wells. Streptavidin-HRP was then added to detect bound biotinylated LGR5; and (B) Mixtures of recombinant His-tagged RNF43 and different α-RSPO3 antibodies, respectively, were applied to each RSPO3-coated wells. Mouse anti-His tag antibody-HRP was then added for detection of bound RNF43. […] The colorimetric reaction was then stopped by 2N HCL and the optical density at 450 nm of each well was determined immediately.
To exam whether different α-RSPO3 antibodies might compete with the binding of RSPO3 to RNF43, mixtures of recombinant Hig-tagged RNF43 (RNF43-His16108-H08H, Sino Biological) at 200 ng/ml and 20 μg/ml of different α-RSPO3 antibodies, respectively, were applied to each well. […] The colorimetric reaction was then stopped by 2N HCL and the optical density at 450 nm of each well were determined immediately.

DLD-1 cells = experiment: Wound healing (migration) assay in DLD-1 cells; type: cell-based, human; details: 100 μg/ml antibody, Wnt3a 20 ng/ml and RSPO3 50 ng/ml
Description: FIG. 11 is a graph showing the effects of different α-RSPO3 antibodies on wound healing in the DLD-1 cell model. The percentages of wound closure were calculated and shown in the bar graph.
DLD-1 cells were seeded at 40000 cells per well in Culture-Insert 2 Well (ibidi, Martinsried, Germany) with RPMI medium containing 10% FBS for 16 hours. After removing the culture insert, cells were either treated with 100 μg/ml control human IgG1 antibodies or 100 μg/ml anti-RSPO3 antibodies in low serum (0.5%) medium in the presence of 20 ng/ml Wnt3a and 50 ng/ml RSPO3. Samples were then subjected to live cell image time lapse microscopy system (Leica AF6000 LX) to observe migration of DLD-1 cells. Three positions of each well under 10× objective lens were selected at the beginning and phase images of these positions were acquired by Zyla 4.2 sCMOS camera every 30 minutes for up to 60 hours.

[1] = tested on: NCI-H2030 lung cancer xenograft; experiment: RSPO^high NCI-H2030 lung cancer CDX model; type: in vivo, nude mice; details: for terminal average tumor volume: 25 mg/kg i.v. once a week, Day 29; for body weight loss: mouse, in vivo
Description: FIG. 14 is a graph showing the efficacy of hB1 in a RSPO^high NCI-H2030 Lung Cancer CDX model. Mice were treated with hB1 or 131R010 at 25 mg/kg, or control (vehicle) once a week for 4 weeks. On Day 28 of treatment, 7 mice from each of the vehicle, 131R010 and hB1 groups were sacrificed for tumor collection at 24 hours after the […] dose. Data are expressed as mean±SEM. On Day 51 of treatment, 7 mice from each of the Carboplatin, hB1, 131R010 and carboplatin in combination groups were sacrificed for tumor collection. Data are expressed as mean±SEM.
To evaluate the preclinical in vivo efficacy, RSPO^high NCI-H2030 lung cancer cell-derived xenograft (CDX) model was used in this study. Female nude mice were inoculated subcutaneously at the right flank with one fragment of NCI-H2030 (5*10^6) for tumor development. When the average tumor size reached about 250 mm^3, tumor-bearing mice were randomly allocated into groups and 25 mg/kg of the test articles, 50 mg/kg of carboplatin or vehicle (isotype IgG) were injected intravenously (i.v.) every week for 4 weeks. Tumor volume was measured by caliper every three days (one day dosing and 2 days off) and using the formula: TV=0.5×a×b^2, where a and b is the long and short diameters of the tumor, respectively. Animals were sacrificed due to tumor size reaching humane endpoints, and the last value of the tumor volume was carried forward until the end of the study.
Statistical analyses were including the mean and standard error, are provided for the tumor volume. Since the two treatment regimens were independent, for comparison between each treatment against control, an independent sample was performed. All data was analyzed using 2way ANOVA multiple comparisons by Prism. P<0.05 was considered to be statistically significant.

Molecule | competition with RNF43 for binding to RSPO3 (RSPO3 / RNF43 binding) | wound healing activity of DLD-1 cells (DLD-1 cells) | terminal average tumor volume [1] | body weight loss [1] | antitumor activity (in words) ([1]; single agent or with carboplatin 50 mg/kg)
B1 | did not interfere with the binding between RNF43 and RSPO3 | able to inhibit wound healing activity | 1124±471.8 mm^3 | no severe body weight loss | significant antitumor activity; also recorded: better anti-cancer efficacy than rosmantuzumab
B2 | did not interfere with the binding between RNF43 and RSPO3 | able to inhibit wound healing activity | 1327.4±194.3 mm^3 | no severe body weight loss | 
